Reference: article PMC5009254, “Accessory Interaction Motifs in the Atg19 Cargo Receptor Enable Strong Binding to the Clustered Ubiquitin-related Atg8 Protein*^([image sbox.jpg])” (The Journal of Biological Chemistry, 2016)
Changes are numbered by the printed parent chain. Numbers in names are those of the source. Where no end group is shown, it is not given here.

How the values were obtained:
[1] = target: GST-Atg19 CTD W412A (S. cerevisiae) (UniProt P35193); assay: microscopy-based protein-protein interaction assay on beads; glutathione-Sepharose beads coated with GST-Atg19 CTDs, washed, in 1 μM EGFP-Atg8 solution, 25 mM HEPES pH 7.5, 150 mM NaCl, 1 mM DTT; imaged by spinning disc microscopy without washing; signal normalized to wild type
[2] = target: GST-Atg19 CTD F376A, F379A, L384A, L387A (S. cerevisiae) (UniProt P35193); assay: as above
[3] = target: GST-Atg19 CTD L384A, L387A (S. cerevisiae) (UniProt P35193); assay: as above
Atg8 [4] = target: T1, Atg8 (Saccharomyces cerevisiae, UniProt P38182, K26P); assay: biochemical; assay type: binding
T1 construct: Atg8 1–117; GST (N, cleaved yes); made in house; host or cells: Escherichia coli Rosetta pLysS DE3
Source text: To test this hypothesis, we titrated 12 amino acid-long peptides containing the respective LIR-like motif in the center (Fig. 1) into labeled Atg8 and recorded the CSCs (Fig. 5). […] We attempted to determine a more exact Kd for the FYSF and LPEL peptides by isothermal titration calorimetry.
To corroborate our NMR-based interactions studies, we attempted to measure their interaction with Atg8 by isothermal titration calorimetry.

[5] = target: T2, Atg8 K26P, 15N isotope-labeled (S. cerevisiae, UniProt P38182 1-117, K26P, 15N isotope-labeled); assay: NMR titration; unlabeled Atg19 CTD or peptide titrated into 15N-labeled Atg8 K26P; 2D 15N HSQC at 25 °C; Atg8 135-500 μM, Atg19 C terminus 15-1000 μM; Kd estimated as the median of one-site saturation fits of CSCs of four to twelve Atg8 residues; conditions: both partners purified
T2 construct: Atg8, S. cerevisiae, amino acids 1-117, K26P mutant used for stability in NMR; Cloned in pGEX-4-T1; GST cut off with thrombin; also called [15N]Atg8; K26P mutant of Atg8; source: E. coli Rosetta pLysS DE3 in M9 minimal medium with [15N]ammonium chloride, purified (glutathione beads, thrombin, SEC)
T2 sequence (looked up): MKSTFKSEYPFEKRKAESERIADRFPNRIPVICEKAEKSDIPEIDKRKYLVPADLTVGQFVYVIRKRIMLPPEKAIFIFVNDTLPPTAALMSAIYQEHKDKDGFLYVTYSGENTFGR

EGFP-Atg8 = assay: Microscopy-based protein-protein interaction assay: EGFP-Atg8 recruited to glutathione-Sepharose beads coated with GST-Atg19 CTD; assay type: binding, Saccharomyces cerevisiae; conditions: GST-tagged Atg19 CTD on glutathione-Sepharose beads, 1 μM EGFP-Atg8, 30 min, spinning disc microscopy; mean of 3 experiments
Source text: To confirm the contributions of the ^376FYSF^379 and ^384LPEL^387 motifs for Atg8 binding, we employed a microscopy-based protein-protein interaction assay. To this end, EGFP-Atg8 in solution was recruited to glutathione-Sepharose beads coated with GST-Atg19 C termini (Fig. 6, A and B). Atg8 bound efficiently to beads coated with the wild-type C terminus. Upon introduction of the W412A mutation, the Atg8 signal on the beads dropped to 23%.
FIGURE 6. Accessory LIR motifs contribute to Atg8 binding in a microscopy-based interaction assay. A, glutathione-Sepharose beads were coated with GST-tagged Atg19 CTDs, washed, incubated in a 1 μM EGFP-Atg8 solution, and imaged by spinning disc microscopy. B, signal intensity of EGFP-Atg8 decreased for the LIR and accessory LIR mutants. C, quantification of the EGFP signal (mean ± S.D. from 3 experiments) on GST-Atg19 CTD-coated beads normalized to the mean signal on wild-type GST-Atg19 CTD-coated beads. Scale bars = 30 μm. TEXT PRINTED IN THE PICTURE: (B) W412A: relative binding (%): 23% | (B) L384, L387A: relative binding (%): 47% | (B) F376, F379, L384, L387A: relative binding (%): 25% | (B) L384, L387, W412A: relative binding (%): 7% | (B) F376, F379, L384, L387, W412A: relative binding (%): 2%
Glutathione-Sepharose 4B beads (GE Healthcare) were incubated with GST-tagged Atg19 C terminus for 1 h at 4 °C. After washing the beads three times with 25 mM HEPES (pH 7.5), 150 mM NaCl, and 1 mM DTT, 1 μl of a 1:1 resuspension of glutathione beads in protein solution was added to a 1 μM solution of EGFP-Atg8 30 min prior to imaging. Microscopic images were acquired using a confocal spinning disc microscope (Visitron) and processed with ImageJ software.

Atg8 [6] = conditions: ITC-based Kd determination; read-out: Kd by ITC, full-length Atg19; cited from earlier work
[7] = target: Atg8 used for isothermal titration calorimetry (S. cerevisiae) (UniProt P38182); assay: ITC; peptides titrated, Atg8; conditions not given
EGFP-Atg8, P38182 = target: T3, EGFP-Atg8, P38182; assay: microscopy-based protein-protein interaction assay (GST-Atg19 CTD on glutathione-Sepharose beads, spinning disc microscopy); conditions: chain shown with the change; 1 μm EGFP-Atg8 solution; parent: 100
T3 chain: T2 sequence (looked up) with P26K

For “EGFP-Atg8 (from UniProt P38182 1-116) (natural protein)”, the EGFP-Atg8 signal on beads, percent of wild type [1] was 23%, the EGFP-Atg8 signal on beads, percent of wild type [2] was 25% and the EGFP-Atg8 signal on beads, percent of wild type [3] was 47%.

Molecule GDDNEKALTWEEL [canonical LIR peptide] has a Kd (Atg8 [4]) of 2.8 µM.

B1: Atg19 CTD (amino acids 365-407) F376A, F379A, L384A, L387A (domain or fragment, S. cerevisiae, UniProt P35193 365-407, looked up)
chain: SAESLQASQEPAYSAQIDTAPEADDSSIISTSISLSYDGDDNE
notes: Atg19, S. cerevisiae, amino acids 365-407 (last eight amino acids 408-415 deleted), F376A, F379A, L384A, L387A; also called FFLLΔ; source: E. coli Rosetta pLysS DE3, purified (glutathione beads, thrombin, SEC)
For B1, the Kd [5] was 600 µM.

B2: W412A (protein, UniProt P35193 1-415, looked up, variant W412A)
Autophagy-related protein 19: MNNSKTNQQMNTSMGYPLTVYDECNKFQLIVPTLDANIMLWCIGQLSLLNDSNGCKHLFWQPNDKSNVRILLNNYDYGHLFKYLQCQRKCSVYIGEGTLKKYNLTISTSFDNFLDLTPSEEKESLCREDAHEDPVSPKAGSEEEISPNSTSNVVVSRECLDNFMKQLLKLEESLNKLELEQKVTNKEPNHRISGTIDIPEDRSELVNFFTELKTVKQLEDVFQRYHDYERLSQECDSKTEIASDHSKKETKIEVEPPNERSLQITMNQRDNSLYFQLFNNTNSVLAGNCKLKFTDAGDKPTTQIIDMGPHEIGIKEYKEYRYFPYALDLEAGSTIEIENQYGEVIFLGKYGSSPMINLRPPSRLSAESLQASQEPFYSFQIDTLPELDDSSIISTSISLSYDGDDNEKALTAEEL
In the case of B2, the “relative binding (EGFP-Atg8 signal on beads, normalized to wild-type GST-Atg19 CTD)” value (EGFP-Atg8) is reported as 23%.

B3: L384, L387, W412A (protein, UniProt P35193 1-415, looked up, variant L384A L387A W412A)
Autophagy-related protein 19: B2 Autophagy-related protein 19 with L384A, L387A
For B3, the “relative binding (EGFP-Atg8 signal on beads, normalized to wild-type GST-Atg19 CTD)” value (EGFP-Atg8) was 7%.

B4: F376, F379, L384, L387A (protein, UniProt P35193 1-415, looked up, variant F376A F379A L384A L387A)
Autophagy-related protein 19: B2 Autophagy-related protein 19 with F376A, F379A, L384A, L387A, A412W
With B4 the “relative binding (EGFP-Atg8 signal on beads, normalized to wild-type GST-Atg19 CTD)” value (EGFP-Atg8) was 25%.

B5: full-length Atg19: full-length Atg19 cargo receptor of S. cerevisiae (protein, UniProt P35193 1-415, looked up)
chain: B2 Autophagy-related protein 19 with A412W
modifications: full-length
notes: full-length Atg19 cargo receptor of S. cerevisiae
For B5, the Kd (Atg8 [6]) is given as 35 µM.

B6: L384A, L387A (protein, UniProt P35193 1-415, looked up, variant L384A L387A)
Autophagy-related protein 19: B2 Autophagy-related protein 19 with L384A, L387A, A412W
In the case of B6, the “relative binding (EGFP-Atg8 signal on beads, normalized to wild-type GST-Atg19 CTD)” value (EGFP-Atg8) is reported as 47%.

QIDTLPELDDSS [12 amino acid peptide containing 384LPEL387 of Atg19] gave a Kd [5] of roughly 590 µM.

In the case of GDDNEKALTWEEL [peptide containing the canonical 412WEEL415 motif (Atg19, 403…415)], the Kd [7] is reported as 2.8 µM.

B7: GST-Atg19 CTD, wild type, P35193 L384A; L387A; W412A (protein)
chain: SAESLQASQEPFYSFQIDTAPEADDSSIISTSISLSYDGDDNEKALTAEEL
B7 gave a percent of parent (EGFP-Atg8, P38182) of 7%.

B8: GST-Atg19 CTD, wild type, P35193 F376A; F379A; L384A; L387A; W412A (protein)
chain: B7 chain with F12A, F15A
For B8, the percent of parent (EGFP-Atg8, P38182) was 2%.

B9: Atg19 C-terminal domain (amino acids 365-415), wild type (domain or fragment, S. cerevisiae, UniProt P35193 365-415, looked up)
chain: B7 chain with A20L, A23L, A48W
notes: Atg19, S. cerevisiae, C-terminal domain, amino acids 365-415; also called Atg19 CTD; wild-type Atg19 C terminus; source: E. coli Rosetta pLysS DE3, purified (glutathione beads, thrombin, SEC)
Work on B9 yielded a Kd [5] of roughly 130 µM.

B10: Atg19 CTD L384A, L387A (amino acids 365-415) (domain or fragment, S. cerevisiae, UniProt P35193 365-415, looked up)
chain: B7 chain with A48W
notes: Atg19, S. cerevisiae, C-terminal domain, amino acids 365-415, L384A, L387A; also called LLA; source: E. coli Rosetta pLysS DE3, purified (glutathione beads, thrombin, SEC)
B10 gave a Kd [5] of roughly 70 µM.

B11: Atg19 CTD F376A, F379A, W412A (amino acids 365-415) (domain or fragment, S. cerevisiae, UniProt P35193 365-415, looked up)
chain: B7 chain with F12A, F15A, A20L, A23L
notes: Atg19, S. cerevisiae, C-terminal domain, amino acids 365-415, F376A, F379A, W412A; also called FFWA; triple mutant C terminus; source: E. coli Rosetta pLysS DE3, purified (glutathione beads, thrombin, SEC)
Molecule B11 has a Kd [5] of 290 µM.

B12: Atg19 W412A CTD (amino acids 365-415) (domain or fragment, S. cerevisiae, UniProt P35193 365-415, looked up)
chain: B7 chain with A20L, A23L
notes: Atg19, S. cerevisiae, C-terminal domain, amino acids 365-415, W412A; also called WA; W412A mutant Atg19 CTD; source: E. coli Rosetta pLysS DE3, purified (glutathione beads, thrombin, SEC)
Molecule B12 has a Kd [5] of 180 µM.

Work on SQEPFYSFQIDT [12 amino acid peptide containing 376FYSF379 of Atg19] yielded a Kd [5] of roughly 330 µM.
